B1: Aryl-hydrocarbon-interacting protein-like 1 (Homo sapiens), Q9NZN9 (parent)
chain: MDAALLLNVEGVKKTILHGGTGELPNFITGSRVIFHFRTMKCDEERTVIDDSRQVGQPMHIIIGNMFKLEVWEILLTSMRVHEVAEFWCDTIHTGVYPILSRSLRQMAQGKDPTEWHVHTCGLANMFAYHTLGYEDLDELQKEPQPLVFVIELLQVDAPSDYQRETWNLSNHEKMKAVPVLHGEGNRLFKLGRYEEASSKYQEAIICLRNLQTKEKPWEVQWLKLEKMINTLILNYCQCLLKKEEYYEVLEHTSDILRHHPGIVKAYYVRARAHAEVWNEAEAKADLQKVLELEPSMQKAVRRELRLLENRMAEKQEEERLRCRNMLSQGATQPPAEPPTEPPAQSSTEPPAEPPTAPSAELSAGPPAEPATEPPPSPGHSLQH

Variants of: B1
Details: with nub1_human NUB1, Q9Y5A7
Sequence of nub1_human NUB1, Q9Y5A7 (Q9Y5A7 whole entry): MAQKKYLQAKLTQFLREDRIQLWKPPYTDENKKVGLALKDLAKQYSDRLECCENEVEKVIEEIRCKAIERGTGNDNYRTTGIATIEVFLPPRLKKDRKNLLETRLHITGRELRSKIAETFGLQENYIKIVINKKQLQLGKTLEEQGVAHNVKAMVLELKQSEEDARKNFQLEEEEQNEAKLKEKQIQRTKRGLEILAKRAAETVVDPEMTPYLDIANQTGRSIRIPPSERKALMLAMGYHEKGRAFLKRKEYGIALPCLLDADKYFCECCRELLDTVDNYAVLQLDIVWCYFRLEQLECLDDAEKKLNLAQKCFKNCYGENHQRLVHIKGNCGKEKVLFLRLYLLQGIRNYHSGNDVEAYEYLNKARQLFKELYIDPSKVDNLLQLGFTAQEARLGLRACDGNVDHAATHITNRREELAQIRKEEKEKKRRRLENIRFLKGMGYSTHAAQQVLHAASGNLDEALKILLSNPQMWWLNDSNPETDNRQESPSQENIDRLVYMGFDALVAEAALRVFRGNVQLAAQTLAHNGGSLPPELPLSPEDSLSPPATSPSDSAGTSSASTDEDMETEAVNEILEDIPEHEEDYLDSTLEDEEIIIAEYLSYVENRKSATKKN

Effect of a mutation on the interaction, decreasing interaction:
MDAALLLNVEGVKKTILHGGTGELPNFITGSRVIFHFRTMKCDEERTVIDDSRQVGQPMHIIIGNMFKLEVWEILLTSTRVHEVAEFWCDTIHTGVYPILSRSLRQMAQGKDPTEWHVHTCGLANMFAYHTLGYEDLDELQKEPQPLVFVIELLQVDAPSDYQRETWNLSNHEKMKAVPVLHGEGNRLFKLGRYEEASSKYQEAIICLRNLQTKEKPWEVQWLKLEKMINTLILNYCQCLLKKEEYYEVLEHTSDILRHHPGIVKAYYVRARAHAEVWNEAEAKADLQKVLELEPSMQKAVRRELRLLENRMAEKQEEERLRCRNMLSQGATQPPAEPPTEPPAQSSTEPPAEPPTAPSAELSAGPPAEPATEPPPSPGHSLQH [M79T]
MDAALLLNVEGVKKTILHGGTGELPNFITGSRVIFHFRTMKCDEERTVIDDSWQVGQPMHIIIGNMFKLEVWEILLTSMRVHEVAEFWCDTIHTGVYPILSRSLRQMAQGKDPTEWHVHTCGLANMFAYHTLGYEDLDELQKEPQPLVFVIELLQVDAPSDYQRETWNLSNHEKMKAVPVLHGEGNRLFKLGRYEEASSKYQEAIICLRNLQTKEKPWEVQWLKLEKMINTLILNYCQCLLKKEEYYEVLEHTSDILRHHPGIVKAYYVRARAHAEVWNEAEAKADLQKVLELEPSMQKAVRRELRLLENRMAEKQEEERLRCRNMLSQGATQPPAEPPTEPPAQSSTEPPAEPPTAPSAELSAGPPAEPATEPPPSPGHSLQH [R53W]
MDAALLLNVEGVKKTILHGGTGELPNFITGSRVIFHFRTMKCDEERTVIDDSRQVGQPMHIIIGNMFKLEVWEILLTSMRVHEVAEFWCDTIHTGVYPILSRSLRQMAQGKDPTEWHVHTCGLANMFAYHTLGYEDLDELQKEPQPLVFVIELLQVDAPSDYQRETWNLSNHEKMKAVPVLHGEGNRLFKLGRYEEASSKYQEAIICLRNLQTKEKPWEVQWLKLEKMINTLILNYCQCLLKKEEYYEVLEHTSDILRHHPGIVKAYYVRARAHAEVWNEAEAKADLQKVLELEPSMQKAVLRELRLLENRMAEKQEEERLRCRNMLSQGATQPPAEPPTEPPAQSSTEPPAEPPTAPSAELSAGPPAEPATEPPPSPGHSLQH [R302L]
MDAALLLNVEGVKKTILHGGTGELPNFITGSRVIFHFRTMKCDEERTVIDDSRQVGQPMHIIIGNMFKLEVWEILLTSMRVHEVAEFWCDTIHTGVYPILSRSLRQMAQGKDPTEWHVHTCGLANMFAYHTLGYEDLDELQKEPQPLVFVIELLQVDAPSDYQRETWNLSNHEKMKAVPVLHGEGNRLFKLGRYEEASSKYQEAIICLRNLQTKEKPWEVQWLKLEKMINTLILNYCQCLLKKEEYYEVLEHTSDILRHHPSIVKAYYVRARAHAEVWNEAEAKADLQKVLELEPSMQKAVRRELRLLENRMAEKQEEERLRCRNMLSQGATQPPAEPPTEPPAQSSTEPPAEPPTAPSAELSAGPPAEPATEPPPSPGHSLQH [G262S]
MDAALLLNVEGVKKTILHGGTGELPNFITGSRVIFHFRTMKCDEERTVIDDSRQVGQPMHIIIGNMFKLEVWEILLTSMRVHEVAEFWCDTIHTGIYPILSRSLRQMAQGKDPTEWHVHTCGLANMFAYHTLGYEDLDELQKEPQPLVFVIELLQVDAPSDYQRETWNLSNHEKMKAVPVLHGEGNRLFKLGRYEEASSKYQEAIICLRNLQTKEKPWEVQWLKLEKMINTLILNYCQCLLKKEEYYEVLEHTSDILRHHPGIVKAYYVRARAHAEVWNEAEAKADLQKVLELEPSMQKAVRRELRLLENRMAEKQEEERLRCRNMLSQGATQPPAEPPTEPPAQSSTEPPAEPPTAPSAELSAGPPAEPATEPPPSPGHSLQH [V96I]

From IntAct's records for PubMed 12374762
